What is called stoichiometry N is the number of molecules, sites or subunits per partner or assembly.

The series deals with the molecule itself. Description: native MS.

B1: yeast alcohol dehydrogenase (enzyme, UniProt P00330 1-348, looked up)
chain: MSIPETQKGVIFYESHGKLEYKDIPVPKPKANELLINVKYSGVCHTDLHAWHGDWPLPVKLPLVGGHEGAGVVVGMGENVKGWKIGDYAGIKWLNGSCMACEYCELGNESNCPHADLSGYTHDGSFQQYATADAVQAAHIPQGTDLAQVAPILCAGITVYKALKSANLMAGHWVAISGAAGGLGSLAVQYAKAMGYRVLGIDGGEGKEELFRSIGGEVFIDFTKEKDIVGAVLKATDGGAHGVINVSVSEAAIEASTRYVRANGTTVLVGMPAGAKCCSDVFNQVVKSISIVGSYVGNRADTREALDFFARGLVKSPIKVVGLSTLPEIYEKMEKGQIVGRYVVDTSK
B1: the “stoichiometry N” value turned out to be 4.

B2: rabbit muscle pyruvate kinase (enzyme)
chain: not shown
modifications: acetylation of the N-terminal serine (after removal of the initiator methionine)
With B2, the “stoichiometry N” value was 4.

Values taken from article PMC7641504 (International journal of mass spectrometry, 2020).
